Laboratory results published in publication doi:10.1101/2025.01.24.634724, “Receptor Activity-Modifying Protein 3 enhances GLP-1-mediated Insulin Secretion” (bioRxiv, 2025).

How the values were obtained:
[1] = target: Nluc-GLP-1R (human) (UniProt P43220)
[2] = target: Nluc-GLP-1R co-expressed with FLAG-RAMP3 (UniProt P43220)
Chain of Nluc-GLP-1R co-expressed with FLAG-RAMP3 (P43220 24-463, chain 1 of 2): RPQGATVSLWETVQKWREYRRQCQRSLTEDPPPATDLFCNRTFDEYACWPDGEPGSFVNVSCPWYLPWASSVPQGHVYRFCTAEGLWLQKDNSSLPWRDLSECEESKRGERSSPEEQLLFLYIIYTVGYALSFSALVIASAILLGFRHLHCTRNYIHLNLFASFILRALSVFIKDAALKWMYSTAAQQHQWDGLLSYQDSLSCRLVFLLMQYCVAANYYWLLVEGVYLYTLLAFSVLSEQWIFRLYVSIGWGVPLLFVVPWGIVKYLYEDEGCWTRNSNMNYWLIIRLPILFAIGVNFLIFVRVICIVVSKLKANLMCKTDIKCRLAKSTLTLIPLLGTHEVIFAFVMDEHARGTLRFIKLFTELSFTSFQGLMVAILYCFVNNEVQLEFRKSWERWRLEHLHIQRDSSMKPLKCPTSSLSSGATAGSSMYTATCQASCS
Chain of Nluc-GLP-1R co-expressed with FLAG-RAMP3 (O60896 24-148, chain 2 of 2, further chain): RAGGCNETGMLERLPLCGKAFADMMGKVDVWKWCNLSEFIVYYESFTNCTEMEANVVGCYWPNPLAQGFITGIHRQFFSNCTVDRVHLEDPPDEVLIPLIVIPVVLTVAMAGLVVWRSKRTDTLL

Chain of Nluc-GLP-1R (human) (P43220 24-463): as the sequence (P43220 24-463, chain 1 of 2) above

Work on GLP-1 (7–36amide) (peptide) yielded a (Ca2+)i mobilisation in HEK293T cells, pEC50, receptor without RAMP3 [1] of 7.2 pEC50 and a (Ca2+)i mobilisation in HEK293T cells, pEC50, RAMP3 over-expressed (2:1) [2] of 8.1 pEC50.

Work on “exendin-4 (from UniProt P26349 48-87) (peptide)” yielded a (Ca2+)i mobilisation in HEK293T cells, maximal response, receptor without RAMP3 (percent of 10 μM ionomycin) [1] of 43.6.
